The experiment has as its target T1, nsp10/16 complex (heterodimer of SARS-CoV-2 nsp10 and nsp16) (SARS-CoV-2, UniProt P0DTD1).
T1 construct: also called nsp10/nsp16; nsp10/16 heterodimer
As to the kind of experiment: MST. To be noted: both partners purified.

B1: nsp14ExoN, nsp14 without the methyltransferase domain but retaining the exonuclease activity (domain or fragment)
chain: AENVTGLFKDCSKVITGLHPTQAPTHLSVDTKFKTEGLCVDIPGIPKDMTYRRLISMMGFKMNYQVNGYPNMFITREEAIRHVRAWIGFDVEGCHATREAVGTNLPLQLGFSTGVNLVAVPTGYVDTPNNTDFSRVSAKPPPGDQFKHLIPLMYKGLPWNVVRIKIVQMLSDTLKNLSDRVVFVLWAHGFELTSMKYFVKIGPERTCCLCDRRATCFSTASDTYACWHHSIGFDYVYNPFMIDVQQWGFTGNLQSNHDLYCQVHGNAHVASCDAIMTRCLAVHECFVKRVDWTIE
On to B1, for which the affinity, expressed as Kd, was 110 ± 130 nM.
